Measured values from patent US20230322924A1 (Janssen / Centocor, published 2023).

B1: C33B909 (antibody, V domains shown)
VH: EVQLVESGGGLVQPGRSLRLSCVASGFTFDDYAIHWVRQAPGKGLEWVSGLSWNGGNIGYADSVKGRFTISRDNAKNSLYLQMNSLKTEDTAFYYCTKDTPYGDYFDYWGQGTLVTVSS
VL: DIQMTQSPSSVWASVGDRVTITCRASQGISSWLAWYQQQPGKAPNLLIYRSSSLQSGVPSRFSGSGSGTDFTLTISSLQPEDFATYYCQQDNSFPYTFGQGTKLEIK
notes: OmniMouse clone; also called C33H249/C33L115
B2: PS3B90 (bispecific antibody, human IgG4 S228P, kappa, lambda, F234A L235A)
heavy 1: not shown
light 1: not shown
heavy 2: QVQLQQSGPRLVRPSQTLSLTCAISGDSVFNNNAAWSWIRQSPSRGLEWLGRTYYRSKWLYDYAVSVKSRITVNPDTSRNQFTLQLNSVTPEDTALYYCARGYSSSFDYWGQGTLVTVSSASTKGPSVFPLAPCSRSTSESTAALGCLVKDYFPEPVTVSWNSGALTSGVHTFPAVLQSSGLYSLSSVVTVPSSSLGTKTYTCNVDHKPSNTKVDKRVESKYGPPCPPCPAPEAAGGPSVFLFPPKPKDTLMISRTPEVTCVVVDVSQEDPEVQFNWYVDGVEVHNAKTKPREEQFNSTYRVVSVLTVLHQDWLNGKEYKCKVSNKGLPSSIEKTISKAKGQPREPQVYTLPPSQEEMTKNQVSLTCLVKGFYPSDIAVEWESNGQPENNYKTTPPVLDSDGSFLLYSKLTVDKSRWQEGNVFSCSVMHEALHNHYTQKSLSLSLGK
light 2: QSALTQPASVSGSPGQSITISCTGTSSNIGTYKFVSWYQQHPDKAPKVLLYEVSKRPSGVSSRFSGSKSGNTASLTISGLQAEDQADYHCVSYAGSGTLLFGGGTKLTVLGQPKAAPSVTLFPPSSEELQANKATLVCLISDFYPGAVTVAWKADSSPVKAGVETTTPSKQSNNKYAASSYLSLTPEQWKSHRSYSCQVTHEGSTVEKTVAPTECS
notes: IgG4 PAA; also called PSMB365 x CD3B376

What was measured:
[1] = molecular target: T1, human CD33, full length, on cells (human, UniProt P20138 18-364); experiment: flow cytometry on CD33 expressing HEK293F cells
T1 construct: SH2 and OCIAML3 carry SNP rs12459419 (hetero-/homozygous), which leads to a form without the V domain; also called Human CD33 (HEK293F transfectants); CD33 on AML cell lines KG1, SH2, OCIAML3
Method: OMNIRat antibodies identified via immunization, v-region cloned and subsequently expressed and purified were characterized further for binding to CD33 expressing cells and binding to recombinant antigens. The purified antibodies were assessed for binding to stably transfected HEK293F cells expressing human CD33 or cyno CD33 (generation described above) along with the parental HEK293F as negative control. Cells were harvested from tissue culture flasks using non-enzymatic dissociation buffer (Thermo Scientific). The flasks were rinsed twice with PBS and dissociation buffer was added to the flask, and the flask was incubated for 10 minutes at 37° C. until the cells became non-adherent. The cells were centrifuged at 300 g for 5 minutes and resuspended at 1.0×10⁶ cells/ml in staining buffer (Becton Dickinson; Franklin Lakes, NJ). 50,000 cells/well of each cell type was plated in 50 μl of staining buffer in round bottom plates (Becton Dickinson). […] 30 μl running buffer containing Sytox Green live/dead dye (ThermoFisher) was added to all wells with cells and the plates were read on an iQue IntelliCyt flow cytometer. […] Antibody binding was assessed by the mean fluorescence intensity in the AF647 channel.

[2] = molecular target: T2, human PSMA on cells (LNCaP) (human, UniProt Q04609 1-750); experiment: flow cytometry on LNCaP cells
T2 construct: whole, on cells; also called LNCaP cells
Method: PSMA×CD3 bispecific antibodies were tested for binding to PSMA positive cell line, LNCAP, to PSMA negative cell line, PC3. To assess the binding capabilities of the PSMA bispecific antibodies, the cell-binding assay was utilized (described previously). Bispecific antibodies were normalized for protein concentration and then incubated with the same number of cells expressing either human or cyno PSMA. The MFI at each concentration was collected by flow cytometry and plotted as a function of concentration. Data was transformed via log 10 and then plotted. Nonlinear regression of binding curves was done to determine EC50s.

T2 sequence (Q04609 whole entry): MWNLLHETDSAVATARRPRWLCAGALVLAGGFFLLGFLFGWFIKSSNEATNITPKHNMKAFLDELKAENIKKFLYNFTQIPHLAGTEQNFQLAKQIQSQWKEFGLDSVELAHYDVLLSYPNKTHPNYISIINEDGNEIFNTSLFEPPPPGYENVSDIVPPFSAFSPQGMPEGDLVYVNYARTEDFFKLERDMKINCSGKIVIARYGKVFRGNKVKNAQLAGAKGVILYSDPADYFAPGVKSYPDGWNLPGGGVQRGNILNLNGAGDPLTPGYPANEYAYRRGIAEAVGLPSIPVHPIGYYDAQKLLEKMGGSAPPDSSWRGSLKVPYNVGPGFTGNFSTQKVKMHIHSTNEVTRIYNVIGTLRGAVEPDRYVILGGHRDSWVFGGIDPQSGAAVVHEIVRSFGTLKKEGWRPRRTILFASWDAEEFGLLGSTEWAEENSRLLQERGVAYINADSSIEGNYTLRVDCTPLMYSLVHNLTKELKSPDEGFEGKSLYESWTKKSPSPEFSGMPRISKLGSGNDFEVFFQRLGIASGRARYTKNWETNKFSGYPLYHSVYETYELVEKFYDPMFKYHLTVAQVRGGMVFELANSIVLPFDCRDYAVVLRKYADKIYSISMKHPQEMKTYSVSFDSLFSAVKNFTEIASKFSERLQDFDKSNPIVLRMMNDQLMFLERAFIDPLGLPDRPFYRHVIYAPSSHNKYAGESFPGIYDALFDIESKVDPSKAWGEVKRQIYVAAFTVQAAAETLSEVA
T1 sequence (P20138 18-364 limits assumed): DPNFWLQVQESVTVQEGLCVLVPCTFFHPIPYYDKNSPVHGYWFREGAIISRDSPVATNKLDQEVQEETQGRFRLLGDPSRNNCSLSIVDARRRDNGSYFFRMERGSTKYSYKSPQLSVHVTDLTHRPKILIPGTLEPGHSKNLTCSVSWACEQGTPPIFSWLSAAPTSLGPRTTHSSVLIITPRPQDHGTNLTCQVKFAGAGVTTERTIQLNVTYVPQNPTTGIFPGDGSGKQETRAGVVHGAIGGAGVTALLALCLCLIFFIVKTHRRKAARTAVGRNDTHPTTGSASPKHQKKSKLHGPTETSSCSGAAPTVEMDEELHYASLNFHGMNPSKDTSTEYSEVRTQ

Row | Binder | binding result [1] | binding result [2]
1 | B1 | no binding (tested: 60 nM highest tested) | 
2 | B2 |  | binds
